Consider 1 molecule from PMC3926959.

For this test, the target named is T1, Ndc1-mTurquoise2 (S. cerevisiae), P32500.
T1 chain: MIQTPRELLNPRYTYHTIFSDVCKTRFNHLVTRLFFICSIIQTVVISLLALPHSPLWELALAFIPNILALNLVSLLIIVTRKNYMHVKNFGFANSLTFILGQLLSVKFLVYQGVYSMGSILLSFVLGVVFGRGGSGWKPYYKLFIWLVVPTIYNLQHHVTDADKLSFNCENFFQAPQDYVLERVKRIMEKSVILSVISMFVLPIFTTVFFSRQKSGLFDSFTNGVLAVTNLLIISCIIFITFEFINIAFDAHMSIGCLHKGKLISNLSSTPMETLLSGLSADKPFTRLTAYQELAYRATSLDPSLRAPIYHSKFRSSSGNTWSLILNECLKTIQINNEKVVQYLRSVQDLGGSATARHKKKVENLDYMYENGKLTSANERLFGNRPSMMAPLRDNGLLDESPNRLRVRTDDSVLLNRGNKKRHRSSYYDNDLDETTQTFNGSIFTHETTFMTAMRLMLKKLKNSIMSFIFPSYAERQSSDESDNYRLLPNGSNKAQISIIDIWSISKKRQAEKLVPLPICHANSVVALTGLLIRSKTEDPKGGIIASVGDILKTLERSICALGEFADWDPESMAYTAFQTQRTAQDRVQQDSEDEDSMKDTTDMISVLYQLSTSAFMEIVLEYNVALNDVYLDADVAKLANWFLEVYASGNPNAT
Description: line-scanning fluorescence cross-correlation spectroscopy. Conditions: remark: other sources report otherwise.

B1: Mps3-YFP, P47069 1-682 (natural protein)
chain: MNNSNEHRREEAGAANEQMPYNKAVKSAYADVLKDKMNREQEISLRAIKKGIYTDGGETDNYDMDKENDSAYEMFKKNLDFPLDQHNDDDDDDPYIEDNGQETDGYSDEDYTDEADKSFIEDSDSDSYDLESNSDFEENLESSGEAKKLKWRTYIFYGGLFFVFYFFGSFLMTTVKNNDLESHSSGATSSPGKSFSNLQKQVNHLYSELSKRDEKHSSELDKTVKIIVSQFEKNIKRLLPSNLVNFENDINSLTKQVETISTSMSELQRRNHKFTVENVTQWQDQLVKQLDTHLPQEIPVVINNSSSLLIIPELHNYLSALISDVIESPGIGTAGSAESRWEYDLNRYVKEILSNELQYIDKDYFIQEMNRRLQSNKQEIWEEITNRLETQQQQQQQQVQQDYSNVPQQYSSILMKRLIHQIYNSNQHQWEDDLDFATYVQGTKLLNHLTSPTWRQGSGVQPIELLTDSKQSSSTYWQCENEPGCSWAIRFKTPLYLTKISYMHGRFTNNLHIMNSAPRLISLYVKLSQTKEIKALQTLANQYGFGQHHKRDRNYIKIAKFEYRLTDSRIRQQMYLPPWFIQLKPLVRSIVFQVDENYGNKKFISLRKFIINGVTPQDLQIIENNEFPVLLGDTPEYGVTQNTDEGKRKVLLSKPPYASSSTSTKFHPASNVPSFGQDELDQ
Molecule B1 gave a percent of Ndc1-mTurquoise2 in a complex (FCCS) of 2%.
